Changes are numbered by the printed parent chain. Names may count otherwise.
B1: integrin αIIb(A958-P998) transmembrane peptide (peptide)
chain: not shown
B2: integrin αIIb(A958-P998) transmembrane peptide with G972A (peptide)
chain: not shown
B3: integrin αIIb(A958-P998) transmembrane peptide with G972S (peptide)
chain: not shown

Target: T1, integrin β3(P685-F727) transmembrane peptide with C687S and I693A (human, UniProt P05106 711-753, C687S | I693A)
T1 chain (looked up): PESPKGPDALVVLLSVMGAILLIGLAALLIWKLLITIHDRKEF
Experiment: ITC

Binder | KXY | dH [kcal/mol]
B1 | 9500 ± 500 | -13.9 ± 0.3
ALEERAIPIWVVLVGVLGGLLLLTILVLAMWKVGFFKRNRP (peptide, UniProt P08514 989-1029, looked up) [integrin αIIb(A958-P998) transmembrane peptide with W968V] | 18600 ± 800 | -16 ± 0.2

Target: T2, integrin β3(P685-F727) transmembrane peptide with C687S (human, UniProt P05106 711-753, C687S)
T2 chain (looked up): T1 chain (looked up) with A9I
Experiment: ITC

Binder | KXY | dH [kcal/mol]
ALEERAIPIWVVLVGVLGGLLLLTILVLAMWKVGFFKRNRP (peptide, UniProt P08514 989-1029, looked up) [integrin αIIb(A958-P998) transmembrane peptide with W968V] | 13200 ± 600 | -14.3 ± 0.2
ALEERAIPIWAVLVGVLGGLLLLTILVLAMWKVGFFKRNRP (peptide, UniProt P08514 989-1029, looked up) [integrin αIIb(A958-P998) transmembrane peptide with W968A] | 14000 ± 1000 | -14.1 ± 0.3
ALEERAIAIWVVLVGVLGGLLLLTILVLAMWKVGFFKRNRP (peptide, UniProt P08514 989-1029, looked up) [integrin αIIb(A958-P998) transmembrane peptide with P965A/W968V] | 9700 ± 300 | -14.6 ± 0.1
B2 | 1080 ± 30 | -14.2 ± 0.2
ALEERAIPIWVVLVAVLGGLLLLTILVLAMWKVGFFKRNRP (peptide, UniProt P08514 989-1029, looked up) [integrin αIIb(A958-P998) transmembrane peptide with W968V/G972A] | 1570 ± 50 | -14.4 ± 0.2
ALEERAIPIWVVLVSVLGGLLLLTILVLAMWKVGFFKRNRP (peptide, UniProt P08514 989-1029, looked up) [integrin αIIb(A958-P998) transmembrane peptide with W968V/G972S] | 1300 ± 50 | -12.5 ± 0.3
B3 | 810 ± 20 | -14.8 ± 0.2

From publication PMC11025565 (Journal of molecular biology, 2021)
